Patent US20140087995A1 (published 2014)
Numbered stars: 1 amine (or outer) side, 2 acyl side, 3 side chain; on linkers, the order of the positions; unused ones are H or OH. Bridge positions count the residues as written; N and C are the ends. Side chains are listed from the residue outwards. Ends that are not written are not given here. * marks the point of attachment. C20 diacid = O=C(O)CCCCCCCCCCCCCCCCCCC(=O)*; γGlu = O=C(O)[C@H](CCC(=O)[*:2])N[*:1]

T1: human calcitonin receptor (human, UniProt P30988 25-474)
T1 construct: whole, on cells; Assayed as cell membranes of BHK tk'ts 13 cells stably transfected with the human calcitonin receptor (Assay VII); also called hCTR; hCT
T1 sequence (looked up): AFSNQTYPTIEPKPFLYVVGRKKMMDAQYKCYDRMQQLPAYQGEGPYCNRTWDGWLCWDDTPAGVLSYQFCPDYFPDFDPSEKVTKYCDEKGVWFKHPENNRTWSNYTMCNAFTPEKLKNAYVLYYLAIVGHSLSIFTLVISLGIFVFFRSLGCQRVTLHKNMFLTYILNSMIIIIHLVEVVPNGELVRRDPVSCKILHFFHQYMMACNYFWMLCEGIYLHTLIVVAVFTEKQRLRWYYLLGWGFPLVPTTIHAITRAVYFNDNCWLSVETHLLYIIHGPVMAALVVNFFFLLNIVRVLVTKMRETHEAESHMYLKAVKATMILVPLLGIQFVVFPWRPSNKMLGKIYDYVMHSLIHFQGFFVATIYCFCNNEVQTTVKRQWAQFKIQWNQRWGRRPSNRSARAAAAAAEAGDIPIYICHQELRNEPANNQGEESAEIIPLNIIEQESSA


Columns and labels:
[1] = molecular target: T1, human calcitonin receptor; assay: SPA competition vs 125I-calcitonin, membranes of BHK cells with human calcitonin receptor (Assay VII)
Method in brief: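 BHK hCTR membranes 35 ng/μL + SPA beads 0.05 mg/well; buffer 50 mM Hepes pH 7.4, 1 mM CaCl2, 5 mM MgCl₂, 0.1% OA, 0.02% Tween20. 120 min, 25° C., shaking. Scintillation count; IC50 by one-site binding competition.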

[2] = molecular target: T1, human calcitonin receptor; assay: IC50 at hCTR divided by IC50 at hAmylin-R (SPA competition assays V and VII)
Method in brief: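 Competition binding by SPA with cell membranes (35 ng/μL) and SPA beads in 50 mM Hepes pH 7.4 with 1 mM CaCl2, 5 mM MgCl2, 0.1% OA and 0.02% Tween20. Incubated 120 min at 25 °C with shaking, then counted.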

Row | Binder | IC50 [1] | Ratio hCT/hAmylin binding [2]
1 | K([γGlu-C20 diacid])CNTATCATQRLAHFLRHSSPNFGAIPSSTNVGHNTY-NH2 (disulfide 2-7; N-terminus assumed; SMILES CC[C@H](C)[C@H](NC(=O)[C@H](C)NC(=O)CNC(=O)[C@H](Cc1ccccc1)NC(=O)[C@H](CC(N)=O)NC(=O)[C@@H]1CCCN1C(=O)[C@H](CO)NC(=O)[C@H](CO)NC(=O)[C@H](Cc1c[nH]cn1)NC(=O)[C@H](CCCNC(=N)N)NC(=O)[C@H](CC(C)C)NC(=O)[C@H](Cc1ccccc1)NC(=O)[C@H](Cc1c[nH]cn1)NC(=O)[C@H](C)NC(=O)[C@H](CC(C)C)NC(=O)[C@H](CCCNC(=N)N)NC(=O)[C@H](CCC(N)=O)NC(=O)[C@@H](NC(=O)[C@H](C)NC(=O)[C@@H]1CSSC[C@H](NC(=O)[C@@H](N)CCCCNC(=O)CC[C@H](NC(=O)CCCCCCCCCCCCCCCCCCC(=O)O)C(=O)O)C(=O)N[C@@H](CC(N)=O)C(=O)N[C@@H]([C@@H](C)O)C(=O)N[C@@H](C)C(=O)N[C@@H]([C@@H](C)O)C(=O)N1)[C@@H](C)O)C(=O)N1CCC[C@H]1C(=O)N[C@@H](CO)C(=O)N[C@@H](CO)C(=O)N[C@H](C(=O)N[C@@H](CC(N)=O)C(=O)N[C@H](C(=O)NCC(=O)N[C@@H](Cc1c[nH]cn1)C(=O)N[C@@H](CC(N)=O)C(=O)N[C@H](C(=O)N[C@@H](Cc1ccc(O)cc1)C(N)=O)[C@@H](C)O)C(C)C)[C@@H](C)O, also called compound 81) | 23.6 nM | 87.2
2 | K([γGlu-C20 diacid])CNTATCATQRLAHFLRHSSPNFGAIPSSTNVGSHTY-NH2 (disulfide 2-7; N-terminus assumed; SMILES CC[C@H](C)[C@H](NC(=O)[C@H](C)NC(=O)CNC(=O)[C@H](Cc1ccccc1)NC(=O)[C@H](CC(N)=O)NC(=O)[C@@H]1CCCN1C(=O)[C@H](CO)NC(=O)[C@H](CO)NC(=O)[C@H](Cc1c[nH]cn1)NC(=O)[C@H](CCCNC(=N)N)NC(=O)[C@H](CC(C)C)NC(=O)[C@H](Cc1ccccc1)NC(=O)[C@H](Cc1c[nH]cn1)NC(=O)[C@H](C)NC(=O)[C@H](CC(C)C)NC(=O)[C@H](CCCNC(=N)N)NC(=O)[C@H](CCC(N)=O)NC(=O)[C@@H](NC(=O)[C@H](C)NC(=O)[C@@H]1CSSC[C@H](NC(=O)[C@@H](N)CCCCNC(=O)CC[C@H](NC(=O)CCCCCCCCCCCCCCCCCCC(=O)O)C(=O)O)C(=O)N[C@@H](CC(N)=O)C(=O)N[C@@H]([C@@H](C)O)C(=O)N[C@@H](C)C(=O)N[C@@H]([C@@H](C)O)C(=O)N1)[C@@H](C)O)C(=O)N1CCC[C@H]1C(=O)N[C@@H](CO)C(=O)N[C@@H](CO)C(=O)N[C@H](C(=O)N[C@@H](CC(N)=O)C(=O)N[C@H](C(=O)NCC(=O)N[C@@H](CO)C(=O)N[C@@H](Cc1c[nH]cn1)C(=O)N[C@H](C(=O)N[C@@H](Cc1ccc(O)cc1)C(N)=O)[C@@H](C)O)C(C)C)[C@@H](C)O, also called compound 66) | 18 nM | 45.5
3 | K([γGlu-C20 diacid])CNTATCATQRLAHFLRHSSPNFGAIPSSTPVGSNTY-NH2 (disulfide 2-7; N-terminus assumed; SMILES CC[C@H](C)[C@H](NC(=O)[C@H](C)NC(=O)CNC(=O)[C@H](Cc1ccccc1)NC(=O)[C@H](CC(N)=O)NC(=O)[C@@H]1CCCN1C(=O)[C@H](CO)NC(=O)[C@H](CO)NC(=O)[C@H](Cc1c[nH]cn1)NC(=O)[C@H](CCCNC(=N)N)NC(=O)[C@H](CC(C)C)NC(=O)[C@H](Cc1ccccc1)NC(=O)[C@H](Cc1c[nH]cn1)NC(=O)[C@H](C)NC(=O)[C@H](CC(C)C)NC(=O)[C@H](CCCNC(=N)N)NC(=O)[C@H](CCC(N)=O)NC(=O)[C@@H](NC(=O)[C@H](C)NC(=O)[C@@H]1CSSC[C@H](NC(=O)[C@@H](N)CCCCNC(=O)CC[C@H](NC(=O)CCCCCCCCCCCCCCCCCCC(=O)O)C(=O)O)C(=O)N[C@@H](CC(N)=O)C(=O)N[C@@H]([C@@H](C)O)C(=O)N[C@@H](C)C(=O)N[C@@H]([C@@H](C)O)C(=O)N1)[C@@H](C)O)C(=O)N1CCC[C@H]1C(=O)N[C@@H](CO)C(=O)N[C@@H](CO)C(=O)N[C@H](C(=O)N1CCC[C@H]1C(=O)N[C@H](C(=O)NCC(=O)N[C@@H](CO)C(=O)N[C@@H](CC(N)=O)C(=O)N[C@H](C(=O)N[C@@H](Cc1ccc(O)cc1)C(N)=O)[C@@H](C)O)C(C)C)[C@@H](C)O, also called compound 62) | 6.17 nM | 63
4 | K([γGlu-γGlu-C20 diacid])CNTATCATQRLAEFLRHSSPNFGAIPSSTNVGSRTY-NH2 (disulfide 2-7; N-terminus assumed; SMILES CC[C@H](C)[C@H](NC(=O)[C@H](C)NC(=O)CNC(=O)[C@H](Cc1ccccc1)NC(=O)[C@H](CC(N)=O)NC(=O)[C@@H]1CCCN1C(=O)[C@H](CO)NC(=O)[C@H](CO)NC(=O)[C@H](Cc1c[nH]cn1)NC(=O)[C@H](CCCNC(=N)N)NC(=O)[C@H](CC(C)C)NC(=O)[C@H](Cc1ccccc1)NC(=O)[C@H](CCC(=O)O)NC(=O)[C@H](C)NC(=O)[C@H](CC(C)C)NC(=O)[C@H](CCCNC(=N)N)NC(=O)[C@H](CCC(N)=O)NC(=O)[C@@H](NC(=O)[C@H](C)NC(=O)[C@@H]1CSSC[C@H](NC(=O)[C@@H](N)CCCCNC(=O)CC[C@H](NC(=O)CC[C@H](NC(=O)CCCCCCCCCCCCCCCCCCC(=O)O)C(=O)O)C(=O)O)C(=O)N[C@@H](CC(N)=O)C(=O)N[C@@H]([C@@H](C)O)C(=O)N[C@@H](C)C(=O)N[C@@H]([C@@H](C)O)C(=O)N1)[C@@H](C)O)C(=O)N1CCC[C@H]1C(=O)N[C@@H](CO)C(=O)N[C@@H](CO)C(=O)N[C@H](C(=O)N[C@@H](CC(N)=O)C(=O)N[C@H](C(=O)NCC(=O)N[C@@H](CO)C(=O)N[C@@H](CCCNC(=N)N)C(=O)N[C@H](C(=O)N[C@@H](Cc1ccc(O)cc1)C(N)=O)[C@@H](C)O)C(C)C)[C@@H](C)O, also called compound 89) | 32.5 nM | 28

Further binders by falling IC50 [1], results first:

Row | IC50 [1] | Ratio hCT/hAmylin binding [2] | Binder
5 | 133 nM | 159 | K([γGlu-γGlu-C20 diacid])CNTATCATQRLANFLRHSSPNFGAIPSSTNVGHNTY-NH2 (disulfide 2-7; N-terminus assumed; SMILES CC[C@H](C)[C@H](NC(=O)[C@H](C)NC(=O)CNC(=O)[C@H](Cc1ccccc1)NC(=O)[C@H](CC(N)=O)NC(=O)[C@@H]1CCCN1C(=O)[C@H](CO)NC(=O)[C@H](CO)NC(=O)[C@H](Cc1c[nH]cn1)NC(=O)[C@H](CCCNC(=N)N)NC(=O)[C@H](CC(C)C)NC(=O)[C@H](Cc1ccccc1)NC(=O)[C@H](CC(N)=O)NC(=O)[C@H](C)NC(=O)[C@H](CC(C)C)NC(=O)[C@H](CCCNC(=N)N)NC(=O)[C@H](CCC(N)=O)NC(=O)[C@@H](NC(=O)[C@H](C)NC(=O)[C@@H]1CSSC[C@H](NC(=O)[C@@H](N)CCCCNC(=O)CC[C@H](NC(=O)CC[C@H](NC(=O)CCCCCCCCCCCCCCCCCCC(=O)O)C(=O)O)C(=O)O)C(=O)N[C@@H](CC(N)=O)C(=O)N[C@@H]([C@@H](C)O)C(=O)N[C@@H](C)C(=O)N[C@@H]([C@@H](C)O)C(=O)N1)[C@@H](C)O)C(=O)N1CCC[C@H]1C(=O)N[C@@H](CO)C(=O)N[C@@H](CO)C(=O)N[C@H](C(=O)N[C@@H](CC(N)=O)C(=O)N[C@H](C(=O)NCC(=O)N[C@@H](Cc1c[nH]cn1)C(=O)N[C@@H](CC(N)=O)C(=O)N[C@H](C(=O)N[C@@H](Cc1ccc(O)cc1)C(N)=O)[C@@H](C)O)C(C)C)[C@@H](C)O, also called compound 86)
6 | 34.9 nM | 46.5 | K([γGlu-γGlu-C20 diacid])CNTATCATQRLAEFLRHSSPNFGAIPSSTNVGRNTY-NH2 (disulfide 2-7; N-terminus assumed; SMILES CC[C@H](C)[C@H](NC(=O)[C@H](C)NC(=O)CNC(=O)[C@H](Cc1ccccc1)NC(=O)[C@H](CC(N)=O)NC(=O)[C@@H]1CCCN1C(=O)[C@H](CO)NC(=O)[C@H](CO)NC(=O)[C@H](Cc1c[nH]cn1)NC(=O)[C@H](CCCNC(=N)N)NC(=O)[C@H](CC(C)C)NC(=O)[C@H](Cc1ccccc1)NC(=O)[C@H](CCC(=O)O)NC(=O)[C@H](C)NC(=O)[C@H](CC(C)C)NC(=O)[C@H](CCCNC(=N)N)NC(=O)[C@H](CCC(N)=O)NC(=O)[C@@H](NC(=O)[C@H](C)NC(=O)[C@@H]1CSSC[C@H](NC(=O)[C@@H](N)CCCCNC(=O)CC[C@H](NC(=O)CC[C@H](NC(=O)CCCCCCCCCCCCCCCCCCC(=O)O)C(=O)O)C(=O)O)C(=O)N[C@@H](CC(N)=O)C(=O)N[C@@H]([C@@H](C)O)C(=O)N[C@@H](C)C(=O)N[C@@H]([C@@H](C)O)C(=O)N1)[C@@H](C)O)C(=O)N1CCC[C@H]1C(=O)N[C@@H](CO)C(=O)N[C@@H](CO)C(=O)N[C@H](C(=O)N[C@@H](CC(N)=O)C(=O)N[C@H](C(=O)NCC(=O)N[C@@H](CCCNC(=N)N)C(=O)N[C@@H](CC(N)=O)C(=O)N[C@H](C(=O)N[C@@H](Cc1ccc(O)cc1)C(N)=O)[C@@H](C)O)C(C)C)[C@@H](C)O, also called compound 88)
